Measured values from patent US20260193317A1, “COMBINATION THERAPY WITH ACTRIIB RECEPTOR VARIANTS AND GLP-1 AGONISTS” (35PHARMA Inc., priority 2023, published 2026).
One block for each molecule: values may come before it.

How the values were obtained:
BMP-10 [1] = target: T1, BMP-10 (Homo sapiens, UniProt O95393); test: Small-scale BMP-10 BMP-reporter cell-based assay, single concentration; conditions: […] protein, 40 ng/mL BMP-10
T1 sequence (O95393 317-424): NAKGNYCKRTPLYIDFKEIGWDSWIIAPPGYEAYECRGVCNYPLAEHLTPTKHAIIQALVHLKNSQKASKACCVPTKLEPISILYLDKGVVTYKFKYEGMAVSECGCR
Description: Characterization of the BMP-9 and BMP-10 inhibition potency (IC50) of the fusion proteins was performed using a second cell-based reporter assay. Human hepatic HepG2 cells were transfected with a SEAP-encoding plasmid, in which SEAP expression is under the control of the murine Id1 promoter. A stable pool was generated from this transfection. Cells were grown in EMEM, containing 10% heat-inactivated FBS and 200 μg/mL zeocin (hereafter, “HepG2 growth medium”). […] For all assays, cells were seeded in 96-well plates at a confluence of 100,000 cells per well in HepG2 growth medium. Cells were left to attach for 10 minutes at RT prior to being transferred to a 37° C. incubator (5% CO2) overnight. […] At the end of the incubation, absorbance was read at 650 nm. […]
Small-scale testing of ActRIIB-ECD fusion proteins. […] After 7 days, the supernatant was harvested, clarified, and the amount of expressed protein in each well was quantified using standard methods. The potency of each agent for inhibition of activin A, BMP-9 and BMP-10 was determined in three separate assays.
To determine potency on BMP-10, the same BMP-reporter cell line was used as described above. […] Results are expressed as a % of the signal obtained with the cytokine alone. […]

activin A = target: T2, activin A (Homo sapiens, UniProt P08476); test: Small-scale activin A ELISA with CHO supernatants; conditions: 1 μg/mL protein, 30 ng/mL activin A, loss of signal = binding
T2 sequence (P08476 311-426): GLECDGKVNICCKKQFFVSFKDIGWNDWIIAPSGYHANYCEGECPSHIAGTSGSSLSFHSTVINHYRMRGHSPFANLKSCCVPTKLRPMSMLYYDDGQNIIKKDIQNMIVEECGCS
Description: (§1) Small-scale testing of ActRIIB-ECD fusion proteins. Additional investigation of a series of exemplary agents was performed using proteins expressed in CHO cells. Briefly, DNA encoding the ActRIIB-ECD-Fc fusion constructs was transfected in cells seeded in 12-well plates in a final volume of 1 ml. After 7 days, the supernatant was harvested, clarified, and the amount of expressed protein in each well was quantified using standard methods. The potency of each agent for inhibition of activin A, BMP-9 and BMP-10 was determined in three separate assays.
The next day, the plate was washed three times with buffer (Biolegend #421601). […] Expressed proteins in the supernatants described above were diluted to 2 μg/mL in assay diluent (0.5% BSA, 0.05% tween-20 in PBS), mixed 1:1 with recombinant human activin A (R&D #338-AC, 60 ng/mL, diluted in assay diluent). Complexes were immediately added to the 96-well plate in technical duplicates and incubated for 1 h at RT (concentration of expressed protein and activin A on the plate were 1 μg/mL and 30 ng/mL, respectively). […] In this assay, a loss of signal indicates binding of the exemplary agent to activin A, which prevents activin A binding to the anti-activin A antibody on the plate. Results are expressed as a % of the signal obtained with wild-type ActRIIB-Fc (P75).

BMP-9 [2] = target: T3, BMP-9 (Homo sapiens, UniProt Q9UK05); test: Small-scale BMP-9 ELISA with CHO supernatants; assay type: binding; conditions: BMP-9 10 ng/mL
T3 sequence (Q9UK05 320-429): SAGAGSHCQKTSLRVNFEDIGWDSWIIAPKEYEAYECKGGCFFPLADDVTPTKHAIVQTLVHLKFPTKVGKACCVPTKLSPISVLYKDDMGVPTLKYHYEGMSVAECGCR
Description: as §1
The next day, the plate was washed three times. […] Expressed proteins in the supernatants were diluted 1 in 2 in assay diluent (0.5% BSA, 0.05% tween-20 in PBS) and 100 μl was added to the 96-well plate in technical duplicates. After a 1.5-hour incubation at RT, the plate was washed three times. […] In this assay, a loss of signal indicates less binding of the exemplary agent to BMP-9. Results are expressed as a % of the signal obtained with wild-type ActRIIB-Fc (P75).

BMP-10 [3] = target: T1, BMP-10; test: BMP-10 binding by bio-layer interferometry (BLI); conditions: single concentration 12.5 nM BMP-10
Description: To determine potency on BMP-10, the same BMP-reporter cell line was used as described above. A final concentration of 2.5 nM of each expressed protein was tested in the presence of 40 ng/mL of BMP-10 (R&D #2926-BP). In this assay, a loss of signal indicates neutralization of BMP-10 by the exemplary agent. Results are expressed as a % of the signal obtained with the cytokine alone. A separate assay was used to estimate BMP-10 binding, using bio-layer interferometry (BLI) on a Gator® Plus instrument (Gator Bio, Palo Alto, USA). An anti-Human IgG Fc Gen II probe (#160024, Gator Bio) was loaded with expressed proteins in CHO supernatants, following which BMP-10 binding kinetics (single concentration, 12.5 nM) were assessed.

DIO mice = test: Body composition in high fat diet mice, alone and in combination with incretin mimetics; assay type: in vivo
Description: Experiments were performed in vivo to investigate the potential for additive or synergistic effects between exemplary ActRIIB-ECD polypeptide constructs and incretin mimetics.

[4] = system: follicle-stimulating hormone (FSH); test: FSH production in DIO mice; assay type: in vivo; conditions: 3 weeks of treatment
Description: (§2) Experiments were performed to assess the effects of P1229 on body composition and metabolism in diet-induced obese (DIO) mice. DIO mice were purchased from Jackson Laboratories (#380050). Briefly, mice were fed a high-fat diet (HFD, 60% kcal from fat) from 6 weeks of age until 22 weeks of age (total of 16 weeks on the HFD). […] After 3 weeks of treatments, some animals were sacrificed and scanned by EchoMRI […] (FIGS. 11A-F), while others were sacrificed for tissue collection and RNA analysis. Animals were maintained on the HFD throughout the acclimatization and treatment periods. The murine version of bimagrumab used for these experiments comprises the heavy chain amino acid sequence of SEQ ID NO: 376 and the light chain sequence of SEQ ID NO: 377.
Follicle-stimulating hormone (FSH) is a known biomarker of in vivo target engagement for activin receptor-based traps (See Attie et al. (2013). Muscle Nerve, 47: 416-423). To further validate in vivo target engagement for exemplary agents, FSH production was evaluated in DIO mice, as described above.

[5] = system: diet-induced obese (DIO) mice; test: Body composition and metabolism in diet-induced obese (DIO) mice; assay type: in vivo
Description: as §2

GDF-8 = GDF-8 (UniProt O14793 267-375); test: cell-based or functional assay
activin B = target: T4, activin B (UniProt P09529 293-407); test: cell-based or functional assay
T4 sequence (looked up): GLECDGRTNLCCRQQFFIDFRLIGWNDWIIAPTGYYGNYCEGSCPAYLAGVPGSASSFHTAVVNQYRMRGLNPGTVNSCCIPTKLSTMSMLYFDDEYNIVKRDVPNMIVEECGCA

[6] = target: T5, recombinant human activin A (human, UniProt P08476 311-426); test: cell-based or functional assay
T5 sequence (looked up): T2 sequence (P08476 311-426)

GDF-11 = GDF-11 (UniProt O95390 299-407); test: cell-based or functional assay
[7] = target: T5, recombinant human activin A; test: direct ELISA, activin A coated, anti-human Fc-HRP; co-formulation with semaglutide, D 7 at room temperature
Description: (§3) In each case, the following parameters were assessed: a) monomer content (size exclusion chromatography), b) activin A and GDF-8 neutralization (cell-based assays [CBAs]), c) activin A binding (ELISA), d) GLP-1 receptor binding (ELISA).
(§4) Potency testing by ELISA. […] Blocking buffer (1% BSA, 0.05% tween-20 in PBS, 300 μL/well) was added to each well and the plate was incubated for 1 hour at RT. Starting at 2.5 μg/mL, test agents were diluted in assay diluent (1% BSA, 0.05% tween-20 in PBS, 100 μL/well) and loaded on the plate for 1 h at RT.

[8] = target: T5, recombinant human activin A; test: direct ELISA, activin A coated, anti-human Fc-HRP; co-formulation with semaglutide, D 7 at 2-8°C
Description: as §3, §4

[9] = target: T5, recombinant human activin A; test: direct ELISA, activin A coated, anti-human Fc-HRP; co-formulation with semaglutide, D 0
Description: as §3, §4

BMP-9 [10] = target: T6, BMP-9 (UniProt Q9UK05 320-429); test: cell-based or functional assay
T6 sequence (looked up): T3 sequence (Q9UK05 320-429)

BMP-10 [11] = target: T7, BMP-10 (UniProt O95393 317-424); test: cell-based or functional assay
T7 sequence (looked up): T1 sequence (O95393 317-424)

[12] = target: T5, recombinant human activin A; test: direct ELISA, activin A coated, anti-human Fc-HRP; co-formulation with semaglutide, D 28 at 2-8°C
Description: as §3, §4

[13] = target: T5, recombinant human activin A; test: direct ELISA, activin A coated, anti-human Fc-HRP; co-formulation with semaglutide, D 28 at room temperature
Description: as §3, §4

GDF-11, sequence (O95390 299-407 limits assumed): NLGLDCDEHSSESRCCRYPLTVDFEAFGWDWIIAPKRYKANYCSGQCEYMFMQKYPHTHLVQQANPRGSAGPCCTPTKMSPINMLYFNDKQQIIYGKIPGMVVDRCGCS

- BMP-9 binding, ELISA signal relative to P75 (BMP-9 [2]): near undetectable binding to BMP-9
- BMP-10 KD by bio-layer interferometry (BMP-10 [3]): higher KD (lower affinity) than P75
Molecule: P444: WT hActRIIA, 3 aa linker (GGG), IgG1 Fc; SEQ ID 173 [reference compound]
- BMP-10 neutralization, signal relative to BMP-10 alone (BMP-10 [1]): less neutralization (i.e., greater signal) than P75
- activin A binding, ELISA signal relative to P75 (activin A): comparable activin A binding profile to P75

B1: P1307: murine version of bimagrumab, an antibody targeting ActRIIB and ActRIIA; heavy chain SEQ ID NO: 376, light chain SEQ ID NO: 377 (antibody)
heavy: MDWTWRILFLVAAATGTHAQVQLVQSGAEVKKPGASVKVSCKASGYTFTSSYINWVRQAPGQGLEWMGTINPVSGSTSYAQKFQGRVTMTRDTSISTAYMELSSLRSEDTAVYYCARGGWFDYWGQGTLVTVSSAKTTAPSVYPLAPVCGDTTGSSVTLGCLVKGYFPEPVTLTWNSGSLSSGVHTFPAVLQSDLYTLSSSVTVTSSTWPSQSITCNVAHPASSTKVDKKIEPRGPTIKPCPPCKCPAPNAAGGPSVFIFPPKIKDVLMISLSPIVTCVVVDVSEDDPDVQISWFVNNVEVHTAQTQTHREDYNSTLRVVSALPIQHQDWMSGKEFKCKVNNKDLPAPIERTISKPKGSVRAPQVYVLPPPEEEMTKKQVTLTCMVTDFMPEDIYVEWTNNGKTELNYKNTEPVLDSDGSYFMYSKLRVEKKNWVERNSYSCSVVHEGLHNHHTTKSFSRTPGK
light: MVLQTQVFISLLLWISGAYGDIALTQPASVSGSPGQSITISCTGTSSDVGSYNYVNWYQQHPGKAPKLMIYGVSKRPSGVSNRFSGSKSGNTASLTISGLQAEDEADYYCGTFAGGSYYGVFGGGTKLTVLGQPKSTPTLTVFPPSSEELKENKATLVCLISNFSPSGVTVAWKANGTPITQGVDTSNPTKEGNKFMASSFLHLTSDQWRSHNSFTCQVTHEGDTVEKSLSPAECL
- Body weight (% change from baseline) (DIO mice; DIO mice, 21 days s.c., P1307 20 mg/kg weekly, P1229 40 mg/kg twice weekly, semaglutide 40 μg/kg daily, tirzepatide 45 μg/kg daily, alone or combined): +5.4%
- visceral, epididymal, pericardial, peri-renal, and retroperitoneal white adipose tissue weights (DIO mice; DIO mice, D21): not significantly affected
- gastrocnemius and tibialis anterior weights (DIO mice; DIO mice, D21, P1229 with or without caloric restriction): significantly increased
- Fat mass (% change from baseline) (DIO mice; as E44, NMR): −5.7%
- Lean mass (% change from baseline) (DIO mice; as E44, NMR): +12.3%
- Lean mass/fat mass ratio (DIO mice; as E44, NMR): 1.4
- FSH production [4]: significant decreases in FSH production
- hepatic Ahsg expression [5]: reduced Ahsg expression
- hepatic Fgf21 expression [5]: reduced
- hepatic Inhbe expression [5]: significantly decreased Inhbe expression
- Mss51 gene expression in gastrocnemius muscle ([5]; 3 weeks): reduced Mss51 gene expression
- fat mass and lean mass (EchoMRI) ([5]; 3 weeks s.c., P75, P1229 25 mg/kg twice weekly, P1373 5, 20, 50 mg/kg twice weekly, P1307 20 mg/kg weekly): promoted lean mass gain but less fat loss

- GDF-8 IC50; TGFβ-reporter HEK293 cells (GDF-8): 0.18 nM
- Activin B IC50; TGFβ-reporter HEK293 cells (activin B): 2 nM
- Activin A IC50; TGFβ-reporter HEK293 cells [6]: 0.56 nM
- GDF-11 IC50; TGFβ-reporter HEK293 cells (GDF-11): 0.53 nM
- ELISA potency fold-change vs P1372 alone (ref = 1) [7]: 1.4 fold
- ELISA potency fold-change vs P1372 alone (ref = 1) [8]: 0.85 fold
- ELISA potency fold-change vs P1372 alone (ref = 1) [9]: 0.98 fold
- BMP-9 IC50; BMP-reporter HepG2 cells (BMP-9 [10]): > 1000 nM
- BMP-10 IC50; BMP-reporter HepG2 cells (BMP-10 [11]): > 100 nM
- ELISA potency fold-change vs P1372 alone (ref = 1) [12]: 1.3 fold
- ELISA potency fold-change vs P1372 alone (ref = 1) [13]: 0.79 fold
B2: P1372 (Fc fusion)
chain: ETRECIYYNANWELERTNQSGLERCEGEQDKRWHCYASWRNSSGTIELVKKGCWLDDFNCYDRQECVATEENPQVYFCCCEGNFCNERFTHLPEAGGPEVTYEPPPTGGGGSGGGGSGGGGTHTCPPCPAPELLGGPSVFLFPPKPKDTLYITREPEVTCVVVDVSHEDPEVKFNWYVDGVEVHNAKTKPREEQYNSTYRVVSVLTVLHQDWLNGKEYKCKVSNKALPAPIEKTISKAKGQPREPQVYTLPPSRDELTKNQVSLTCLVKGFYPSDIAVEWESNGQPENNYKTTPPVLDSDGSFFLYSKLTVDKSRWQQGNVFSCSVMHEALHNHYTQKSLSLSPG
notes: also tested in co-formulation with semaglutide, tirzepatide or retatrutide; also called ActRIIB ligand trap P1372
